# Data as given in PMC9750158.
# Key:
# GST-Arf1 (Arf1^∆N17) = GST-Arf1 (Arf1^∆N17) (UniProt P84077); assay: pull-down
# GST-Rac1^QP = GST-Rac1^QP (UniProt P63000); assay: pull-down
Kd (GST-Arf1 (Arf1^∆N17)) [µM],Kd (GST-Rac1^QP) [µM],Substance
5.33,,∆WRC230^D-Rac1 (Rac1 tethered to the C terminus of Sra1) (from UniProt Q7L576;Q9Y2A7;Q92558;Q9NYB9;Q8WUW1) (complex)
,2,WRC with Sra1^Y967A (D site disrupted) (from UniProt Q7L576;Q9Y2A7;Q92558;Q9NYB9;Q8WUW1) (complex)
